Test results from US20220119492A1 (MEDIKINE, published 2022).
Primed or numbered codes have the meaning given here. Ends that are not written are not given here. PEG10 = NCCOCCOCCOCCOCCOCCOCCOCCOCCOCCOCCC(=O)O; PEG20′ = not defined here; PEG4′ = not defined here

Experiments:
hu-IL-2R = biological target: T1, hu-IL-2R (human, UniProt P14784 27-551; P31785 23-369); experiment: cell-based or functional assay
T1 sequence (looked up) 1: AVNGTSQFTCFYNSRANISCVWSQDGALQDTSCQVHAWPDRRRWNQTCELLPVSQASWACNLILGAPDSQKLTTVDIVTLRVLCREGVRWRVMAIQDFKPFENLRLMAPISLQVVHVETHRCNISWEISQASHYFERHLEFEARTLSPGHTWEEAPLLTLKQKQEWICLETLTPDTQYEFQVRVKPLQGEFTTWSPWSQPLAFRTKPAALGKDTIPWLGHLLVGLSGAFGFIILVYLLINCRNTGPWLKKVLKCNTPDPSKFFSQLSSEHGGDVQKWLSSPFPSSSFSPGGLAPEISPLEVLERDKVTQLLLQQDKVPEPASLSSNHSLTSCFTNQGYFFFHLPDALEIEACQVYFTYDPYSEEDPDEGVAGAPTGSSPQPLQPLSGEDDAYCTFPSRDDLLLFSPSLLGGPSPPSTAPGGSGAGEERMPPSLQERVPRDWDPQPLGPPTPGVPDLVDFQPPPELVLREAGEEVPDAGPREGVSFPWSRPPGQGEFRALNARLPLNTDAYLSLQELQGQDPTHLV
T1 sequence (looked up) 2: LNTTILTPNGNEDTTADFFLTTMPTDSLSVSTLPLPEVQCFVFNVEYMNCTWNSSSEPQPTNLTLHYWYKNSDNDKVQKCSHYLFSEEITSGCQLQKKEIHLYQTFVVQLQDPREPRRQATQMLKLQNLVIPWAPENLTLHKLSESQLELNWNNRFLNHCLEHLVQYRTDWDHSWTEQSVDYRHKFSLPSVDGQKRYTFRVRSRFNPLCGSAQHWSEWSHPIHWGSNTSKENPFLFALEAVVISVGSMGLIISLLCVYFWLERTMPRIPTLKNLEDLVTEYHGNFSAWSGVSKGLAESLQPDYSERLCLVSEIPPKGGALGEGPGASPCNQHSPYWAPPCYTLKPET

[1] = biological target: T2, human IL-2Rβ (CD122 protein, Fc Tag) (27-239) (human, UniProt P14784 27-239); experiment: IL-2Rβ IC50, assay not named in Example 29
T2 construct: range 27-239; Bought protein; also called hu-IL-2Rβ subunit; IL-2Rβ subunit; not shown: Fc tag of the bought protein
T2 sequence (looked up): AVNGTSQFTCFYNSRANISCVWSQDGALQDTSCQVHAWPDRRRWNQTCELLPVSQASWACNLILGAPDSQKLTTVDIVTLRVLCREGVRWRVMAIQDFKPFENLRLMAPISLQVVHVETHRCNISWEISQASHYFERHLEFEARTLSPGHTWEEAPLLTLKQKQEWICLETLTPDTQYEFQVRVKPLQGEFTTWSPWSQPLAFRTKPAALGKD

[2] = biological target: T3, human IL-2Rγc (CD132 protein, Fc Tag) (23-254) (human, UniProt P31785 23-254); experiment: IL-2Rγc IC50, assay not named in Example 29
T3 construct: range 23-254; Bought protein; also called hu-IL-2Rγc subunit; IL-2Rγc subunit; not shown: Fc tag of the bought protein
T3 sequence (looked up): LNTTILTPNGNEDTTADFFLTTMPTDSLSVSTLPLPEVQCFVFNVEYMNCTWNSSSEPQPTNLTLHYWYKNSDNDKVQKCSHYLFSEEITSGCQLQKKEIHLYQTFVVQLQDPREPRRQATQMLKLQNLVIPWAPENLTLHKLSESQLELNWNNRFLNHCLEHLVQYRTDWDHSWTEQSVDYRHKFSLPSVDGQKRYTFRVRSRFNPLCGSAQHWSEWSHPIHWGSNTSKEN

[3] = biological target: T2, human IL-2Rβ (CD122 protein, Fc Tag) …; experiment: competitive binding ELISA (Example 28)
Experimental: (§1) In this example, IL-2R ligands were diluted to 2-times final assay concentration in PBT (1×PBS pH 7.2, 0.5% Bovine Serum Albumin, 0.05% Tween®20) and serially diluted. Fifty (50) μL was added to the appropriate wells. The plates were then incubated at 4° C. for 1 hr.
(§2) Without washing, fifty (50) μL of representative phage were added to the assay wells (phage tracer). The plates were then incubated at 4° C. for 45 min.

[4] = biological target: T4, cynomolgus monkey IL-2Rβ subunit (cynomolgus monkey); experiment: competition ELISA, peptide tracer
T4 construct: Bought protein; also called cyno-IL-2Rβ subunit
Experimental: (§3) Binding of Fc fusions to IL-2Rβ and IL-2Rγc were measured using a competition binding ELISA with biotinylated peptide/NeutrAvidin-HRP tracer. ELISA plate was prepared as described in Example 27.
(§4) The plate was washed 4 times with PT (1×PBS, 0.05% Tween® 20) buffer. Fifty (50) μL of IL-2R ligands serially diluted in PBT was added to appropriate wells then incubated at 4° C. for 1 hr.
(§5) At the appropriate time, the precomplexed bn-peptide/NA-HRP tracer was diluted to 2-fold its predetermined binding EC80 (typically 30 to 10 nM) without washing. fifty (50) μL of bn-peptide/NA-HRP tracer was added to each well and incubated at 4° C. for 45 mins.

[5] = biological target: T5, cynomolgus monkey Rγc subunit (cynomolgus monkey); experiment: competition ELISA, peptide tracer
T5 construct: also called cyno-IL-2Rγc subunit
Experimental: as §3, §4, §5

[6] = biological target: T2, human IL-2Rβ (CD122 protein, Fc Tag) …; experiment: competition ELISA, peptide tracer
Experimental: as §3, §4, §5

[7] = biological target: T3, human IL-2Rγc (CD132 protein, Fc Tag) …; experiment: competition ELISA, peptide tracer
Experimental: as §3, §4, §5

[8] = biological target: T3, human IL-2Rγc (CD132 protein, Fc Tag) …; experiment: competitive binding ELISA (Example 28)
Experimental: as §1, §2

T4 sequence (Q38J85 whole entry): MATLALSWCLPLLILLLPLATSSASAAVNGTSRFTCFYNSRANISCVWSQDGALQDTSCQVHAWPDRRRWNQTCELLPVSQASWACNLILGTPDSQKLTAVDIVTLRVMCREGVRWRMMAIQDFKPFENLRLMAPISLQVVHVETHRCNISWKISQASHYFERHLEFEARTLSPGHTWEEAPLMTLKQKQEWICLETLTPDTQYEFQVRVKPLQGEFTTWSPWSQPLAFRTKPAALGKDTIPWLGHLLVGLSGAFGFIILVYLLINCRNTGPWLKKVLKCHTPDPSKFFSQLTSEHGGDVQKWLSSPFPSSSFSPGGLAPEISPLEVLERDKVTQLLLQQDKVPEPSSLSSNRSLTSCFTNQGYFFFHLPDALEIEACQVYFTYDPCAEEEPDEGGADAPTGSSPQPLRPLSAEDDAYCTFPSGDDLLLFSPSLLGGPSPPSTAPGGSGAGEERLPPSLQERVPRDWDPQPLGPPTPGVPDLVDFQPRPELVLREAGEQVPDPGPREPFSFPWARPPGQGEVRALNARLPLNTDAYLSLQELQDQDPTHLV

B1: PEG-IL-2Rβγc ligand construct PEG-1 (peptide)
peptide: {PEG 40 kDa branched-PEG10}-GGWYPCWMAQLGELCDLDGGGGSGGVVCQDWEGVELCWQGG
modifications: not fully specified; printed as -GGWYPCWMAQLGELCDLDGGGGSGGVVCQDWEGVELCWQGG-; cysteine pairing not given here
EC50 (STAT5, NK92) (hu-IL-2R): 5.8 nM
IC50 [1]: 31 nM
IC50 [2]: 26 nM

GGWYPCWMAQLGELCDLDGGGGSGGVVCQDWEGVELCWQGG-{PEG4′-PEG 40 kDa branched} (cysteine pairing not given here) [PEG-IL-2Rβγc ligand construct PEG-2]
EC50 (STAT5, NK92) (hu-IL-2R): 273 nM
IC50 [1]: 8 nM
IC50 [2]: 690 nM

B2: PEG-IL-2Rβγc ligand construct PEG-3 (peptide)
peptide: {PEG 40 kDa branched}-APAPAPAPAPAPGGWYPCWMAQLGELCDLDGGGGSGGVVCQDWEGVELCWQGG
modifications: cysteine pairing not given here
EC50 (STAT5, NK92) (hu-IL-2R): 2.3 nM
IC50 [1]: 14 nM
IC50 [2]: 4.3 nM

GGWYPCWMAQLGELCDLDGGGGSGGVVCQDWEGVELCWQGG-{PEG10-PEG 40 kDa branched} (cysteine pairing not given here) [PEG-IL-2Rβγc ligand construct PEG-4]
EC50 (STAT5, NK92) (hu-IL-2R): 24 nM
IC50 [1]: 8.5 nM
IC50 [2]: 3.7 nM

{PEG 20 kDa linear-PEG20′}-GGWYPCWMAQLGELCDLDGGGGSGGVVCQDWEGVELCWQGG (cysteine pairing not given here; reading uncertain) [PEG-IL-2Rβγc ligand construct PEG-5]
EC50 (STAT5, NK92) (hu-IL-2R): 1 nM
IC50 [1]: 33 nM
IC50 [2]: 4.1 nM

{PEG 40 kDa linear-PEG20′}-GGWYPCWMAQLGELCDLDGGGGSGGVVCQDWEGVELCWQGG (cysteine pairing not given here; reading uncertain) [PEG-IL-2Rβγc ligand construct PEG-6]
EC50 (STAT5, NK92) (hu-IL-2R): 1.6 nM
IC50 [1]: 17 nM
IC50 [2]: 3.4 nM

{PEG 40 kDa branched-PEG20′}-GGWYPCWMAQLGELCDLDGGGGSGGVVCQDWEGVELCWQGG (cysteine pairing not given here; reading uncertain) [PEG-IL-2Rβγc ligand construct PEG-7]
EC50 (STAT5, NK92) (hu-IL-2R): 8.3 nM
IC50 [1]: 3.4 nM
IC50 [2]: 1.7 nM

B3: IL-2Rβ ligand SEQ ID NO: 58 (peptide)
peptide: YDCRIAQVGELCDL
notes: Used as synthetic peptide and as phage clone; also called family 1
IC50 [3]: < 10000 nM

B4: IL-2Rβγc ligand BGL22 (peptide)
peptide 1: GGRYVHDCFIAQVGALCDLFLHPAPAPAPAPAPAPAPA
peptide 2: VVCQDWEGVELCWQGG
modifications: cysteine pairing not given here; also: two chains joined by non-peptidyl linker L11 (click chemistry)
notes: Made by click chemistry
IC50 [4]: < 100000 nM
IC50 [5]: < 100000 nM
IC50 [6]: < 100000 nM
IC50 [7]: < 100000 nM

B5: IL-2Rβγc ligand BGL23 (peptide)
peptide 1: GGRYVHACFIAQVGDLCDLFLHPAPAPAPAPAPAPAPA
peptide 2: VVCQDWEGVELCWQGG
modifications: cysteine pairing not given here; also: two chains joined by non-peptidyl linker L11 (click chemistry)
notes: Made by click chemistry
IC50 [4]: < 100000 nM
IC50 [5]: < 100000 nM
IC50 [6]: < 100000 nM
IC50 [7]: < 100000 nM

B6: IL-2Rβγc ligand BGL24 (peptide)
peptide 1: GGRYVHDCFIAQVGDLCDLALHPAPAPAPAPAPAPAPA
peptide 2: VVCQDWEGVELCWQGG
modifications: cysteine pairing not given here; also: two chains joined by non-peptidyl linker L11 (click chemistry)
notes: Made by click chemistry
IC50 [4]: < 100000 nM
IC50 [5]: < 100000 nM
IC50 [6]: < 100000 nM
IC50 [7]: < 100000 nM

NMCLVGDYWPSCQI (also called family 2A) [IL-2Rβ ligand SEQ ID NO: 169]
IC50 [3]: < 10000 nM

B7: IL-2Rβ ligand SEQ ID NO: 170 (peptide)
peptide: QICDVGQWWPDCQV
notes: Used as phage clone; also called family 2A
IC50 [3]: < 10000 nM

B8: IL-2Rβ ligand SEQ ID NO: 1034 (peptide)
peptide: CGMAIGDLCMWT
notes: Used as phage clone; also called family 2C
IC50 [3]: < 10000 nM

RWGDVGDLLMPL (also called family 2C) [IL-2Rβ ligand SEQ ID NO: 1042]
IC50 [3]: < 10000 nM

B9: IL-2Rβ ligand SEQ ID NO: 1044 (peptide)
peptide: RSCYYKRPRLWCSE
notes: Used as synthetic peptide and as phage clone; also called family 4
IC50 [3]: < 10000 nM

B10: IL-2Rγc ligand SEQ ID NO: 198 (peptide)
peptide: KVCEMWGGVLLCWN
notes: Used as phage clone; also called family 1A
IC50 [8]: < 10000 nM

RTCTEWENVVLCWV (also called family 1A) [IL-2Rγc ligand SEQ ID NO: 202]
IC50 [8]: < 10000 nM

B11: IL-2Rγc ligand SEQ ID NO: 224 (peptide)
peptide: DCSMWEGVELCW
notes: Used as synthetic peptide and as phage clone; also called family 1B
IC50 [8]: < 10000 nM

B12: IL-2Rγc ligand SEQ ID NO: 236 (peptide)
peptide: MCWLEWGEWVGSCL
notes: Used as synthetic peptide and as phage clone; also called family 2
IC50 [8]: < 10000 nM

B13: IL-2Rγc ligand SEQ ID NO: 248 (peptide)
peptide: DLSDLSTFWLSQ
notes: Used as synthetic peptide and as phage clone; also called family 3
IC50 [8]: < 10000 nM

B14: IL-2Rγc ligand SEQ ID NO: 266 (peptide)
peptide: CPSMLQGPERTWVC
notes: Used as phage clone; also called family 4
IC50 [8]: < 10000 nM

B15: IL-2Rγc ligand SEQ ID NO: 1032 (peptide)
peptide: SLLKCYNASTCASVF
notes: Used as synthetic peptide and as phage clone; also called family 5
IC50 [8]: < 10000 nM

B16: SEQ ID NO 4170 (peptide)
peptide: GGGELLVDCFKVKVGELCDLFFGGGGGSGGGGSGGGGSGGGGSGGVVCQDWEGVELCWQGG
IC50 [4]: < 100000 nM
IC50 [5]: < 100000 nM
IC50 [6]: < 100000 nM
IC50 [7]: < 100000 nM

B17: IL-2Rβγc ligand having SEQ ID NO: 4171 (peptide)
peptide: GGGELLVDCFKVKVGELCDLFFGPAPAPAPAPAPAPAPAGVVCQDWEGVELCWQGG
IC50 [4]: < 100000 nM
IC50 [5]: < 100000 nM
IC50 [6]: < 100000 nM
IC50 [7]: < 100000 nM
